The results in this text go back to US20220033784A1 (priority 2020, published 2022).

In experiment [1] the target is T1, human high-affinity IL-2 receptor complex, IL-2 CD25/CD122/CD132 (α/β/γ), on cells (human, UniProt P01589 22-272; P14784 27-551; P31785 23-369).
T1 sequence (looked up) 1: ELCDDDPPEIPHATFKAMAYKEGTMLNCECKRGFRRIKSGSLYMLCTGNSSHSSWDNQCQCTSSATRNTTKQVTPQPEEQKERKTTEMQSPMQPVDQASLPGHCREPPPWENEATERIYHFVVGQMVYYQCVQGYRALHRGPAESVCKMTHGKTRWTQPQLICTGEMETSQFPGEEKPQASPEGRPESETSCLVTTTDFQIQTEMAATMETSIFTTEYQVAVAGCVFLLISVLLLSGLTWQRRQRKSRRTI
T1 sequence (looked up) 2: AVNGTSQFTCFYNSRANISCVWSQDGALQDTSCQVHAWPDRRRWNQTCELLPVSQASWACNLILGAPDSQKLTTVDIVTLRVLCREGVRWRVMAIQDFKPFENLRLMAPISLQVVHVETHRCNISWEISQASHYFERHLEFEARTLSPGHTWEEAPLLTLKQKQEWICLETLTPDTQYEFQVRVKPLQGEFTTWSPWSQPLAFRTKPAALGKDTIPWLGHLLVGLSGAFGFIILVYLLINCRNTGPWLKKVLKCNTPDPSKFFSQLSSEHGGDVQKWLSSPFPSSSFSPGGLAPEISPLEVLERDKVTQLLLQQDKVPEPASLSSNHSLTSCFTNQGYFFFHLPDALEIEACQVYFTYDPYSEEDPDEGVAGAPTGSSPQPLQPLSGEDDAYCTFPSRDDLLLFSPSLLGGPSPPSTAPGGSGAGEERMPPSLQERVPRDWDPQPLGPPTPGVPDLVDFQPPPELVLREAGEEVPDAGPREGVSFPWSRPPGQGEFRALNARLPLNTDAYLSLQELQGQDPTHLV
T1 sequence (looked up) 3: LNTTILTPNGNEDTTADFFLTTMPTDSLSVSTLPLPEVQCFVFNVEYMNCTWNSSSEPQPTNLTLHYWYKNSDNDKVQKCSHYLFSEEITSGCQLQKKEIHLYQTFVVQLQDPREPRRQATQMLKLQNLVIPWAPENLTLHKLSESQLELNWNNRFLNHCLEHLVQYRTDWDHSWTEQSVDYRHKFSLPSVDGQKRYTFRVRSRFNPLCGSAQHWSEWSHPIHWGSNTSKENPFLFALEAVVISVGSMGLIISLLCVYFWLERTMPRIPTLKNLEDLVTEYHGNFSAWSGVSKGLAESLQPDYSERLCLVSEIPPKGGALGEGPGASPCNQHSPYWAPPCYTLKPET
Nature of the experiment: cell-based or functional assay.

For experiment [2], the target named is T2, human intermediate-affinity IL-2 receptor complex, IL-2 CD122/CD132 (β/γ), on cells (human, UniProt P14784 27-551; P31785 23-369).
T2 sequence (looked up) 1: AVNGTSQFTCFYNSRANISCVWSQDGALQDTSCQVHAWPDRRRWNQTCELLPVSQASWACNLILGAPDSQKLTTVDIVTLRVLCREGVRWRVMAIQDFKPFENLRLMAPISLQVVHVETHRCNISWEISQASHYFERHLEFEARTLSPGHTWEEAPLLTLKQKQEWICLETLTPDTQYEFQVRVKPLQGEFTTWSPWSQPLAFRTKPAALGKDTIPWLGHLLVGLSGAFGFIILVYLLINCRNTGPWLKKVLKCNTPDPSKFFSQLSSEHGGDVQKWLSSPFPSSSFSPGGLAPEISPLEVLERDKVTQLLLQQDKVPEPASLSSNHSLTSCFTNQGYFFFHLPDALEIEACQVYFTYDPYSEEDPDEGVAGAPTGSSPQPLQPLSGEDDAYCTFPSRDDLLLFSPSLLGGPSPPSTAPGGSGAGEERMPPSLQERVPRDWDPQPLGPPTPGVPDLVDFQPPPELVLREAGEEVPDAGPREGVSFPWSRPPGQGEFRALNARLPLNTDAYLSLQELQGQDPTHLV
T2 sequence (looked up) 2: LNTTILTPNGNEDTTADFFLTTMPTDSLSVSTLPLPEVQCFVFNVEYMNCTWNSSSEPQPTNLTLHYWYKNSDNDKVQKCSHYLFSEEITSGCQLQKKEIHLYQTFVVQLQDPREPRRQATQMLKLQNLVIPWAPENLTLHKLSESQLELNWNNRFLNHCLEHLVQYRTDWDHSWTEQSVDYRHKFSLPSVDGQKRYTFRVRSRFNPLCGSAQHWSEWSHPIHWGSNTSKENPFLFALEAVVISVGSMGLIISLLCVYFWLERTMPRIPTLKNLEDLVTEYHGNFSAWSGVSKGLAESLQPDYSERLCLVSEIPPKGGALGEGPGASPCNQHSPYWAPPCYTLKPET
The experiment is described as follows: cell-based or functional assay.

Experiment [3] concerns Treg cells (CD3+CD4+CD25+ Foxp3+). It is filed as cell-based, mouse (C57BL/6). The settings on record: protein from supernatants of virus-infected HeLa cells, 15 minutes incubation.

B1: Fc-IL2-T41N:K43T-E62N:K64T (Fc fusion)
chain: GGGGSGGGGSAPTSSSTKKTQLQLEHLLLDLQMILNGINNYKNPKLTRMLNFTFYMPKKATELKHLQCLEENLTPLEEVLNLAQSKNFHLRPRDLISNINVIVLELKGSETTFMCEYADETATIVEFLNRWITFCQSIISTLT
As for B1, the “EC50 (read off the curve), pSTAT5 MFI in Treg cells of hPBMC” value in experiment [1] was about 20 nM. In addition, the “EC50 (read off the curve), pSTAT5 MFI in NK cells of hPBMC” value in experiment [2] is about 6 nM.

B2: Fc-IL2-T41N:K43T-L72N:Q74T (Fc fusion)
chain: GGGGSGGGGSAPTSSSTKKTQLQLEHLLLDLQMILNGINNYKNPKLTRMLNFTFYMPKKATELKHLQCLEEELKPLEEVLNNATSKNFHLRPRDLISNINVIVLELKGSETTFMCEYADETATIVEFLNRWITFCQSIISTLT
Regarding B2, the “EC50 (read off the curve), pSTAT5 MFI in Treg cells of hPBMC” value in experiment [1] was about 20 nM. For the same molecule, the “EC50 (read off the curve), pSTAT5 MFI in NK cells of hPBMC” value in experiment [2] is about 6 nM.

B3: IL-2gv1 (protein)
chain: APTSSSTKKTQLQLEHLLLDLQMILNGINNYKNPKLTNMTTFNFTMPKKATELKHLQCLEEELKPLEEVLNLAQSKNFHLRPRDLISNINVIVLELKGSETTFMCEYADETATIVEFLNRWITFCQSIISTLT
Regarding B3, the “activity on Treg cells (concentration potency at inducing pSTAT5) compared to wild-type IL-2” value in experiment [3] is listed as “reduced activity on Treg cells”.

B4: IL-2gv2 (protein)
chain: APTSSSTKKTQLQLEHLLLDLQMILNGINNYKNPKLTRMLTFNFTMPKKATELKHLQCLEEELKPLEEVLNNATSKNFHLRPRDLISNINVIVLELKGSETTFMCEYADETATIVEFLNRWITFCQSIISTLT
As to B4, the “activity on Treg cells (concentration potency at inducing pSTAT5) compared to wild-type IL-2” value in experiment [3] is given as “reduced activity on Treg cells”.
